Experimental data reported in article doi:10.1101/2024.06.06.597810 (bioRxiv, 2024).
Changes are numbered by the printed parent chain. Names may count otherwise.

Target: T1, Biotin-labeled BatCoV-BtkY72 stem helix peptide (Bat SARS-related coronavirus BtKY72 …, UniProt A0A3Q8AKM0, biotin (position not given))
T1 construct: source: synthetic peptide, bought: GenScript
Test: BLI
Settings: both partners purified

B1: S2P6 UCA VH M48I/S56H double mutant Fab (Fab, V domains shown)
VH: QVQLVQSGAEVKKPGASVKVSCKASGYTFTSYYMHWVRQAPGQGLEWIGIINPSGGHTSYAQKFQGRVTMTRDTSTSTVYMELSSLRSEDTAVYYCARGSPKGAFDYWGQGTLVTVSS
VL: not shown
notes: source: Expi293F, co-transfected, purified (IgG-CH1-XL beads)
binding result: binds

B2: S2P6 UCA VH Y32Q/M48I/S56H triple mutant Fab (Fab, V domains shown)
VH: B1 VH with Y32Q
VL: not shown
notes: as for B1
binding result: binds
